The record followed here is the nanobody polyreactivity screen of Harvey et al. (2022).

The nature of the series: yeast display, Sf9 membrane polyspecificity reagent, FACS + sequencing; frameworks hold sequencing errors. In outline:
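Galactose induction of a Saccharomyces cerevisiae BJ5465 synthetic nanobody display library ran 36–48 hours. The cells were then stained for 1 hour at 4 °C with 10% biotinylated, detergent-solubilized Sf9 membrane reagent, pulled down on streptavidin microbeads and FACS-sorted into low and high (top ~1%) gates on expression and reagent-binding fluorescence. Labels for polyreactivity follow the gate of origin.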
Regarding “QVQLVESGGGLVQAGGSLRLSCAACGRTFQSNAMGWYRQAPGKERELVARITRRGGITYYADSVKGRFTISRDNAKNTVYLQMNSLKPEDTAVYYCNRYLYDSYRWAALQRTGYNSWGQGTQVTVSS”, the “polyreactivity (PSR sort gate)” value is “high polyreactivity”.
Turning to “QVQLVESGGGLVQAGGSLRLSCAACGRTFRRNAMGWYREAPGKERELVAAISTSGGRTYYADSVKGRFTISRDNAKNTVYLQMNSLKPEDTAVYYCAADIPQTDGYWGQGTQVTVSS”, the “polyreactivity (PSR sort gate)” value is “low polyreactivity”.
As to “QVQLVESGGGLVQAGGSLRLSCAACGRTFVDYVMGSYRQAPGKERELVAAISRSGSTYYADSVKGRFTISRDNAKNTVYLQRNSLKPEDTAVYYCAASSVALPWYASWYVYGYEYCGQGTQVTVSS”, the “polyreactivity (PSR sort gate)” value is on record as “low polyreactivity”.
The entry for “QVQLVESGGGLVQAGGSLRLSCAACGRTFVSYSMGWYRQAPGKERELVAAISRSGGRTYYADSVKGRFTISRDNAKNTVYLQMNSLKPEDTAVYYCATIQYGTLARYDYWGQGTQVTVSS” is “high polyreactivity”.
The entry for “QVQLVESGGGLVQAGGSLRLSCAACGRTFYFYTMGWYRQAPGKERELVAAITRSGVSTYYADSVKGRFTISRDNAKNTVYLQMNSLKPEDTAVYYCAVRTWGYTQYYYWGQGTQVTVSS” is “high polyreactivity”; for “QVQLVESGGGLVQAGGSLRLSCAACGRTLRTYGMGWYRQAPGKERELVATITRRGDSTYYADSVKGRFTISRDNAKNTVYLQMNSLKPEDTAVYYSNTASYGRHQFRKSSKMDYWGQGTQVTVSS” it is “high polyreactivity”.
As to “QVQLVESGGGLVQAGGSLRLSCAACGSIFDRYVMGWYRQAPGKERELVAAISSSGGSTYYADSVKGRFTISRDNAKNTVYLQMNSLKPEDTAVYYCAAKFSYGRYNYWGQGTQVTVSS”, the “polyreactivity (PSR sort gate)” value is “high polyreactivity”.
The entry for “QVQLVESGGGLVQAGGSLRLSCAACGSIFEFNTMGWYRQAPGKERELVAAISSSGGRTYYADSVKGRFTISRDNAKNSVYLQMNSLKPEDTGVYYCNARRLVHNPDYDYWGQGTQVTVSS” is “high polyreactivity”; for “QVQLVESGGGLVQAGGSLRLSCAACGSIFNYYTMGWYRTAPGKERELVADISWSGGSTYYADSVKGRFTISRDNAKNTVYLQMNSLKPEETAVYYCAADFGLFPYVGTGYYYWGQGTQVTVSS” it is “low polyreactivity”.
The entry for “QVQLVESGGGLVQAGGSLRLSCAACGSIFVRNTMGWDRQAPGKERELVASIDWSGGITSYADSVKGRFTISRDNAKNTVYLQMNIRKPEDTAVYFCNAVFLYPFNVPTMEYWGQGTQVTVSS” is “low polyreactivity”; for “QVQLVESGGGLVQAGGSLRLSCAACGSIFYGNAMGWDRQAPGKVRELVAAITQGATSTYYADSVKGRFTISRDNAKNTVDLQMNSLKPEDTAVYYCAAVLAWRYTYYYWGQGTQVTVSS” it is “high polyreactivity”.
The entry for “QVQLVESGGGLVQAGGSLRLSCAACGSIVRDYAMGWYRQAPGKERELVAAIRQSGGRTYYADSVKGRFTISRDNAKNTVYLQMNSLKPDDTAVYYCIARRANYWKKASTQYYYWGQGTQVTVSS” is “high polyreactivity”; for “QVQLVESGGGLVQAGGSLRLSCAACGSTFFPYAMGWYRQAPGKERELVAAITSGGRTKYADSVKGRFTISRDNAKNTVYLQMNSLKPEDTAVYYCAARGLIKEYGGPYRRFGYWGQGTQVTVSS” it is “high polyreactivity”.
“QVQLVESGGGLVQAGGSLRLSCAACGSTFYAYAMGWYRQAPGKERELVAAIDSGGSTYYADSVKGRFTISRYNAKNTVYLEMNSLKPEDTAVYYCAVRHRYTRAYRGRDYWGQGTQVTVSS”: the “polyreactivity (PSR sort gate)” value is recorded as “low polyreactivity”.
As to “QVQLVESGGGLVQAGGSLRLSCAAFPYAMGWYIPAPAKERELVAAISSSGTSTYYADSVKGRFTISRDNAKNTVYLQMNSLKPEDTAVYYCNTALSRLSQHDYWGQGTQVTVSS”, the “polyreactivity (PSR sort gate)” value is given as “low polyreactivity”.
In the case of “QVQLVESGGGLVQAGGSLRLSCAAPGSTFGRYAMGWYRQAPGKERELVAAISKSGGSTYYADSVKGRFTISRDNAKNTVYLQMNSLKPEDTAVYYCAATTTRYSYEYWGQGTQVTVSS”, the “polyreactivity (PSR sort gate)” value was “low polyreactivity”.
On to “QVQLVESGGGLVQAGGSLRLSCAAPGSTLSYYAMGWYRQATGKERELVAAISLSVGSTYYADSVKGRFTISRDNAKNTVYLQMNSLKPEDTAVYYCAADDFYSGPFRGDYWGQGTQVTVSS”, for which the “polyreactivity (PSR sort gate)” value was “low polyreactivity”.
The entry for “QVQLVESGGGLVQAGGSLRLSCAAPGYIFEFYAMGWYRQAPGKERELVAAISWRGGSTYADSVKGRFTISRDNAKNTVYLQMNSLKPEDTAVYYCNADVEGRYDWTENDYWGQGTQVTVSS” is “low polyreactivity”.
The entry for “QVQLVESGGGLVQAGGSLRLSCAASAFILYRYAMGWYRQAPGKERELVAAISRTGGSTYYADSVKGRFTISRDNAKNTVYLQMNSLKPEDTAVYYCNARSSYGLSYRQYGYWGQGTQVTVSS” is “high polyreactivity”.
The entry for “QVQLVESGGGLVQAGGSLRLSCAASAITFYDYPMGWYRQAPGKERELVAAITWNGGDTYYADSVKGRFTISRDNAKNTDYLQMNSLKPEDTAVYYCNATRHYFGGFHYEYYYWGQGTQVTVSS” is “low polyreactivity”; for “QVQLVESGGGLVQAGGSLRLSCAASARIFGWNAMGWYRQAPGKERELVAAISWRGGSTYYADSVKGRFTISRDNAKNTVYLQMNSLKPEDTAVYYCNALYTRYVSQWFGYWGQGTQVTVSS” it is “high polyreactivity”.
For “QVQLVESGGGLVQAGGSLRLSCAASASIFRSYAMGWYRQAPGKERELVAAISWRGDSTYYADSVKGRFTISRDNAKHTVYLQMNSLKPEDTAVYYCNVQRSLRMDYWGQGTQGTVSS”, the “polyreactivity (PSR sort gate)” value is “high polyreactivity”.
The entry for “QVQLVESGGGLVQAGGSLRLSCAASASIFYIYGIGWYRQAPGKERELVARISSGDRTNYADSVKGRFTISRDNAKNTVYLHMNSLKAEDTAVYYCNARVSYYLGRYYWGQGTQVTVSS” is “high polyreactivity”; for “QVQLVESGGGLVQAGGSLRLSCAASASISDSYAMGRYRQAPGKERELVAAITSGDSTYYADSVKGRFTISRDNAKNTLYLQMNSLKPEDTAVYYCAKRVSRGRGYGFTDWSEYDYWGQGTQVTVSS” it is “low polyreactivity”.
The entry for “QVQLVESGGGLVQAGGSLRLSCAASASNYERYVMGWNRQAPGKERELVAAISRSGGTTYYADSVKGRFTISRDNAKNTVYLQMNSLKPEDTAVYYCAARVPHDSAGYDYWGQATQVTVSS” is “high polyreactivity”.
The entry for “QVQLVESGGGLVQAGGSLRLSCAASASTFPVNAMGWYRQAPGKERELVAAIRSSTGRTYYADSVKGRFTISRDNAKNTVYLQMNSLKPEDTAVYYCAAYYLGQYEYDYWGQGTQVTVSS” is “low polyreactivity”; for “QVQLVESGGGLVQAGGSLRLSCAASGAIFGFYAMGWYRQAAGKERELVADITFSVGSTNYADSVKGRFTISRDNAKNTVYLQRNSLKPEDTAVYYCAVANVYYEGYDYWGQGTQVTVSS” it is “low polyreactivity”; for “QVQLVESGGGLVQAGGSLRLSCAASGAIFQPYGMGGYSQAPGKERELVAAISRGGTTYYADSVTGRFTISRANAKNTDYLQMNSLKPEETAVYYCAVKGYRYGTRYDYRGQGTQVTVSS” it is “high polyreactivity”.
Take “QVQLVESGGGLVQAGGSLRLSCAASGAIFVAYAMGWYRQAPGKDRELVAAITYSAGSTYYADSVKGRFTISRDNAKNTVYLQMNSLKPEDTAVYYCAADALVYSFIGYEYWGQGTQVTLSS”: the “polyreactivity (PSR sort gate)” value is recorded as “low polyreactivity”.
The entry for “QVQLVESGGGLVQAGGSLRLSCAASGAIFYYYCMGWYRQAPGKEREWVAGISSRGGRTYYADSVKGRFTISRDNAKNTVYLQMNSLKPVDTAVYYCAADRYYYAYRYFPSGYWGQGTQVTVSS” is “low polyreactivity”.
The entry for “QVQLVESGGGLVQAGGSLRLSCAASGAILDEYSMVWYRPAPGKAREFVAGIRTIGGSTYYADSVKGRFTISRENAKNTVYLQLNSLIPEDTADNYCAADGRTHEPQGWLGGYDYCGQGTQVTVSS” is “low polyreactivity”; for “QVQLVESGGGLVQAGGSLRLSCAASGAMGWYRQAPGKERELVAGITSGGSTNYADSVKGRFTISRDNAKNTVYLQMNSLKPEDTAVYDCNAVGGPRWLSVGWPYDYWGQGTQVTVSS” it is “low polyreactivity”.
The entry for “QVQLVESGGGLVQAGGSLRLSCAASGANFGRNDMGWYRQAPGKERELVAAISWSGGRTYYADSVKGRFTISRDNAKNTVYLQMISLKPEDTAVYYCNRDYYVGRYDYWGQGTQVTVSS” is “high polyreactivity”; for “QVQLVESGGGLVQAGGSLRLSCAASGATFWRYAMGWYRQAPGKERELVAAISTSGGSTRYADSVKGRFTISRDNAKNTVYLQMNSLKPEDTAVYYCNAQHLARMDYWGQGTQVTVSS” it is “high polyreactivity”.
Take “QVQLVESGGGLVQAGGSLRLSCAASGCIFTYNTMGWYRQAPGKERELVAAISGRGGRTYYADSVKGRFTISRDNAKNTVYLQMNSLKPEDTAVYYCNARKYSQKIYGNYNYWGKGTQVTVSS”: the “polyreactivity (PSR sort gate)” value was “high polyreactivity”.
For the sequence “QVQLVESGGGLVQAGGSLRLSCAASGCTRWYAMGWYRQAPGKERELVAAINGRGVSTYYAVSVKGRFRISRDNAKHTVYLQMNSLKQADTAVYYCAAYAYYDRYRRYDYWGQGTQVTVST”, the “polyreactivity (PSR sort gate)” value is reported as “low polyreactivity”.
Consider “QVQLVESGGGLVQAGGSLRLSCAASGDIFDAYAMGWYRQAPGKERELVAAISRSGGSTYYADSVKGRFTISRDNAKNTVYLQMNSLKPEDTAVYYCATRFSRRYVRYDYWGQGTQVTVSS”, for which the “polyreactivity (PSR sort gate)” value is on record as “high polyreactivity”.
The entry for “QVQLVESGGGLVQAGGSLRLSCAASGFFFAGYAMGWYRQAPGKERELVAAISSGGGSTYYADSVKGRFTISRDNAKNTVYLQMNSLKPEDTAVYYCAARRLYPPGYYYWGQGTQVTVSS” is “high polyreactivity”.
The entry for “QVQLVESGGGLVQAGGSLRLSCAASGFFFGFYAMGWYRQAPGKERELVASISGRGGRTSYADSVKGRFTISRDNAKITVYLQMNSLKPEDTAVYYCNKAGYGVSRKYDYWGQGTQVTVSS” is “high polyreactivity”; for “QVQLVESGGGLVQAGGSLRLSCAASGFICFDYDMGWYRQAPGKERELVAAINWTGGSTDYADSVKGRFTISRDNAKNTVYLQMNSLKPEDTAVYYCAAEGQDGRFYWGQGTQVTVSS” it is “low polyreactivity”.
The entry for “QVQLVESGGGLVQAGGSLRLSCAASGFIDAYTMGWYRQAPGKERELVAAMTWSGGRTYYADSVKGRFTISRDNAKNTVYLQLYSLKPEDTAVYYCAKDVTPYSPDDDYWGQGTQVTVSS” is “low polyreactivity”.
